Measurements reported in patent publication US20130302346A1 (LEXICON PHARMACEUTICALS, published 2013).
Substitutions are numbered along the chain they refer to. Like-named read-outs stand apart in the source and are kept apart here. One block for each binder: values may come before it.

Assays:
[1] = target: T1, Human NOTUM (human, UniProt Q6P988 20-496); assay: cell-based or functional assay
T1 sequence: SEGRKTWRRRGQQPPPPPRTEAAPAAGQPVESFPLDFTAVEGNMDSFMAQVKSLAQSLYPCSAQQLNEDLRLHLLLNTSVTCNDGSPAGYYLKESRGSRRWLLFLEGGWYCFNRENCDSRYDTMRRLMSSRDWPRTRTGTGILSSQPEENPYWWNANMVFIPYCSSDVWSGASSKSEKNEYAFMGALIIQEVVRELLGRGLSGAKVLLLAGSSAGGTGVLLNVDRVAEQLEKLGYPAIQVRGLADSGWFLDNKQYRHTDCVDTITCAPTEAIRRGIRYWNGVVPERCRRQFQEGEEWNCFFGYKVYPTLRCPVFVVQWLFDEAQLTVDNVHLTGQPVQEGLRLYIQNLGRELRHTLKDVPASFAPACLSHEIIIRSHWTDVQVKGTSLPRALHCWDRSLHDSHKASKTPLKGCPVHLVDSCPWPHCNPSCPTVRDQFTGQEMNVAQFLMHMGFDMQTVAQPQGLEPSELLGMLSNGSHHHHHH

[2] = target: T2, Rhesus monkey NOTUM (rhesus monkey, UniProt Q6P988 20-491 (human entry)); assay: ELISA
T2 construct: Produced by transient transfection; also called Rhesus macaque NOTUM; rhesus NOTUM
T2 chain: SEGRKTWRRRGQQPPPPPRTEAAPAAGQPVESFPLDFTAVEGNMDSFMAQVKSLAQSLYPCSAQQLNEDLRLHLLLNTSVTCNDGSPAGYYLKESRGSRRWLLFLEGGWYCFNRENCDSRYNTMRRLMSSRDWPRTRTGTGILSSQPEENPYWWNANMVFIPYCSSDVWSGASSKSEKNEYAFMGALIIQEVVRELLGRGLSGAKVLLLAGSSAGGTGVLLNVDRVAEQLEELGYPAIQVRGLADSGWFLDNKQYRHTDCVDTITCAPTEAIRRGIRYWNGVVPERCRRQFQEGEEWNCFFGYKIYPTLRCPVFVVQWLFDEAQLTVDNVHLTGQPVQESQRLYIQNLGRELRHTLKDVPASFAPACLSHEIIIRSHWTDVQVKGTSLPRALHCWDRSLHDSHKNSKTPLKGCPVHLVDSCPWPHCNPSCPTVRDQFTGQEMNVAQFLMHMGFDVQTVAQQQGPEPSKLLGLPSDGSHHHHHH

[3] = target: T3, Guinea pig NOTUM (guinea pig, UniProt Q6P988 21-496 (human entry)); assay: ELISA
T3 construct: Expressed by transient transfection
T3 chain: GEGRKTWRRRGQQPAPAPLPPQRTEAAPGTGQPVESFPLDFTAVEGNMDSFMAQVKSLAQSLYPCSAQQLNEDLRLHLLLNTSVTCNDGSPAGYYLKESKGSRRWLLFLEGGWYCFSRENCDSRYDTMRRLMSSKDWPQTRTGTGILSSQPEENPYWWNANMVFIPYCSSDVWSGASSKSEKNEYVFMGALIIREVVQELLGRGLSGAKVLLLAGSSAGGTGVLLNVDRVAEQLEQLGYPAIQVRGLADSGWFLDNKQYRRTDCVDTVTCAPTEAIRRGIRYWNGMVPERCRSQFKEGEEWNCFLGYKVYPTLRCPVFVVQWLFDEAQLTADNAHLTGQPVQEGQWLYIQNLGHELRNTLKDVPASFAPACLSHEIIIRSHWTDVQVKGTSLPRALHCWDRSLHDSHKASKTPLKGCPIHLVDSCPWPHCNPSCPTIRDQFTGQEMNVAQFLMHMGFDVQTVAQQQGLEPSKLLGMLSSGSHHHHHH

[4] = target: T1, Human NOTUM; assay: Biacore 3000
Description: (§1) Binding affinities of certain anti-NOTUM MAbs was determined using a Biacore 3000. In order to obtain meaningful affinity values for binding to multimeric […] NOTUM protein, antibody FAb fragments were generated by digestion of whole IgG with the protease Ficin, followed by removal of undigested IgG and Fc fragments by protein A affinity chromatography. Affinity values for binding of FAbs and whole IgG to human NOTUM corresponded, and their affinity values were in the single to low double digit nM range, as shown in Table 3.

[5] = target: T1, Human NOTUM; assay: cell-based or functional assay; remark: listed apart in the source
[6] = target: T4, Mouse NOTUM (mouse, UniProt Q8R116 20-503); assay: cell-based or functional assay
T4 sequence: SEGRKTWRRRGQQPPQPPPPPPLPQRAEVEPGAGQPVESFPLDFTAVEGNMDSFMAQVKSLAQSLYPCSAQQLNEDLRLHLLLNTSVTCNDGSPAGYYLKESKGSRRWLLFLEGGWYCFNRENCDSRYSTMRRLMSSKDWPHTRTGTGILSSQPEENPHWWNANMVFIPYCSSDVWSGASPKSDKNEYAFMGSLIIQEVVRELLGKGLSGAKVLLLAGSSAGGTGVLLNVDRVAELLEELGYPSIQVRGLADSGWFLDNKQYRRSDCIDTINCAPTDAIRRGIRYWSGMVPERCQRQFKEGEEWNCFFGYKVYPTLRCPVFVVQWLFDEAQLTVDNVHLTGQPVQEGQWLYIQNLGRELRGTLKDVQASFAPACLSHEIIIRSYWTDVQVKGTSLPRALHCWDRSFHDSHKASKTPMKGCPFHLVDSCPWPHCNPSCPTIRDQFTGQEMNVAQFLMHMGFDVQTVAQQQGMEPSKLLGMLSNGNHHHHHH

[7] = target: T5, Human NOTUM D137A/R139A (human, UniProt Q6P988 20-496); assay: ELISA
T5 construct: Alanine mutant, expressed and secreted after transient transfection; little to no activity in the OPTS assay
T5 sequence: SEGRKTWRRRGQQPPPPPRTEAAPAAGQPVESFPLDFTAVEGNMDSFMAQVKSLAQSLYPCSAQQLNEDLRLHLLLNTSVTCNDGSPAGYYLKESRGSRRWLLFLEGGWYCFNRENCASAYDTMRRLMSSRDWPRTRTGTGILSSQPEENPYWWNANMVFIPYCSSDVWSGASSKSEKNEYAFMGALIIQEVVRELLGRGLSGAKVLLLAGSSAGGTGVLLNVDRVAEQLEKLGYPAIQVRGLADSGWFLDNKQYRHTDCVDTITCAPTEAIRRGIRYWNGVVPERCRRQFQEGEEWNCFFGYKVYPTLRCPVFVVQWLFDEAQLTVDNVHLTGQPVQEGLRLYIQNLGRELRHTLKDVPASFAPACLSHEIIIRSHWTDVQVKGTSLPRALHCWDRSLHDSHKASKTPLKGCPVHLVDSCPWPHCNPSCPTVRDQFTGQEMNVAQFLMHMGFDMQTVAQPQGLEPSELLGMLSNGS

[8] = target: T6, Human NOTUM R144A/R145A (human, UniProt Q6P988 20-496); assay: ELISA
T6 construct: Alanine mutant, expressed and secreted after transient transfection
T6 sequence: T5 sequence with A118D, A120R, R125A, R126A

[9] = target: T4, Mouse NOTUM; assay: Biacore 3000
Description: as §1

[10] = target: T1, Human NOTUM; assay: cell-based or functional assay; remark: listed apart in the source
[11] = target: T4, Mouse NOTUM; assay: cell-based or functional assay; remark: listed apart in the source
[12] = target: T1, Human NOTUM; assay: ELISA (column 'Human NOTUM binding')

- IC50, neutralization in the Wnt signaling assay [1]: 14 nM
- binding result [2]: binds
- binding result [3]: binds
- Kd [4]: 5.99 nM
- kon [4]: 151000 M⁻¹ s⁻¹
- OPTS IC50 (nM; human NOTUM) [5]: 5.77 nM
- Wnt signaling IC50 (nM; human NOTUM) [5]: 14 nM
- OPTS IC50 (nM; mouse NOTUM) [6]: 29.2 nM
B1: MAb 2.1029 (antibody, IgG2a, V domains shown)
VH: QVQLKESGPGLVAPSQSLSITCTVSGFSLTSYGVHWVRQPPGKGLEWLGVIWAGGSTNYNSALMSRLSISKDNSKSQVFLKMNSLQTDDTAIYFCARDGDYGTIYAMDYWGQGTSVTVSS
VL: DIQMTQTTSSLSASLGDRVTISCRASQDISNYLNWYQQKPDGTVKLLIYYTSRLHSGVPSRFTGSGSGTDYSLTISNLEQEDIATYFCQQGKTLPRTFGGGTMLEIKR
notes: Mouse monoclonal antibody from Campaign 2, IgG2a

- binding result [7]: no binding
- binding result [2]: binds
- binding result [8]: no binding
- binding result [3]: binds
- Kd [4]: 17.6 nM
- kon [4]: 47900 M⁻¹ s⁻¹
- OPTS IC50 (nM; human NOTUM) [5]: 15.5 nM
- Wnt signaling IC50 (nM; human NOTUM) [5]: 45.9 nM
- OPTS IC50 (nM; mouse NOTUM) [6]: 35.6 nM
- Wnt signaling IC50 (nM; mouse NOTUM) [6]: 3.75 nM
B2: MAb 2.78 (antibody, V domains shown)
VH: DVQLVESGGGLVQPGGSRKLSCAASGFTFSSFGMHWVRQAPEKGLEWVAYITSGSGAIYYADTVRGRFTISRDTPKNTLFLQMTSLRSEDTAMYYCARSADGLDYWGQGTSVTVSS
VL: DIQMTQSPASLYVSVGETVTITCRASENIYSNLAWYQQKQGKSPQLLVYGATNLADGVPSRFSGSGSGTQYSLKINSLKSEDFGSYYCQHFWGTPFTFGSGTKLEIKR
notes: Mouse monoclonal antibody from Campaign 2 (raised against mouse NOTUM), IgG2b

- Kd [4]: 15.4 nM
- koff [4]: 0.00136 s⁻¹
- kon [4]: 87700 M⁻¹ s⁻¹
- Kd [9]: 4.99 nM
- kon [9]: 39100 M⁻¹ s⁻¹
B3: 2.78 Fab (Fab, V domains shown)
VH: B2 VH
VL: B2 VL
notes: Fab made by digestion of whole IgG (mouse IgG2b) with ficin

- OPTS IC50 (nM; human NOTUM) [10]: > 167 nM
- Wnt signaling IC50 (nM; human NOTUM) [10]: 15.5 nM
- OPTS IC50 (nM; mouse NOTUM) [11]: 197 nM
B4: MAb 1.731 (antibody, IgG1, V domains shown)
VH: EVQLQQSGPELVKPGASVKVSCKASGYPFTDYFIHWVKQTHGKSLEWIGYFFPKNGANGYNQKFEGKVTLTVDKSSSTAYMELRSLTSEDSAVYYCARRYGNYYSMDYWGQGTSVTVSS
VL: SFVMTQTPKFLLVSAGDRVTITCKASQSVGDDVAWYQQKPGQSPTLLIYRVSNRYTGVPDRFTGSGYGTDFTFTINTVQAEDLAVYFCQQDYSSPYTFGGGTQLEVKR

- Kd [4]: 0.91 nM
- kon [4]: 899000 M⁻¹ s⁻¹
- binding result [9]: no binding
B5: 1.802 Fab (Fab, V domains shown)
VH: EVQLVESGGGLVKPGGSLKLSCAASGFTFSDYGMHWFRQAPEKGLEWVAYISSGSRTVYYADTVKGRFTISRDNAKNTLSLQMTSLRSEDTAMYYCARKHYNGGYFDVWGTGTTVTVSS
VL: DIVLTQSPASLAVSLGQRATISCRASKIVSTSGYSYMHWYQQKPGQPPKLLIYLASNLESGVPARFSGSGSGTDFTLNIHPVEEEDAATYYCQHSRELPPTFGSGTKLEIKR
notes: Fab made by digestion of whole IgG (mouse IgG1) with ficin

- OPTS IC50 (nM; mouse NOTUM) [6]: 26.1 nM
- binding result [12]: binds
B6: MAb 2.55 (antibody, IgG2a, V domains shown)
VH: EVQLQQSGTVLARPGALVKMSCKASGYTFTSYWMHWVKQRPGQGLEWIGAIYPGKSDTRYNQKFKDKAKLTAVTSTSTAYMDLSSLTDEDSAVYYCSRRYGNFYAMDYWGQGTSVTVSS
VL: SIVMTQTPKFLLVSAGDRVTMTCKASQSVSNDVAWYQQKPGQSPELLIYYASDRYTGVPDRFTGSGYGTDFTLTISTVQAEDLAVYFCQQDYSSPYTFGGGTKLETKR
notes: as for B1
